B1: Hsp70 10mer peptide Ac-GSGPTIEEVD-OH [modified: N-terminal acetyl; N-terminal acetyl] [not stated] / protein phosphatase 5 (PP5), human, full-length [human] (parent complex)
chain 1: GSGPTIEEVD
chain 2: MAMAEGERTECAEPPRDEPPADGALKRAEELKTQANDYFKAKDYENAIKFYSQAIELNPSNAIYYGNRSLAYLRTECYGYALGDATRAIELDKKYIKGYYRRAASNMALGKFRAALRDYETVVKVKPHDKDAKMKYQECNKIVKQKAFERAIAGDEHKRSVVDSLDIESMTIEDEYSGPKLEDGKVTISFMKELMQWYKDQKKLHRKCAYQILVQVKEVLSKLSTLVETTLKETEKITVCGDTHGQFYDLLNIFELNGLPSETNPYIFNGDFVDRGSFSVEVILTLFGFKLLYPDHFHLLRGNHETDNMNQIYGFEGEVKAKYTAQMYELFSEVFEWLPLAQCINGKVLIMHGGLFSEDGVTLDDIRKIERNRQPPDSGPMCDLLWSDPQPQNGRSISKRGVSCQFGPDVTKAFLEENNLDYIIRSHEVKAEGYEVAHGGRCVTVFSAPNYCDQMGNKASYIHLQGSDLRPQFHQFTAVPHPNVKPMAYANTLLQLGMM

The variants in this experiment derive from B1. The experiment in a line: competition fluorescence polarisation; read at the highest peptide concentration, 100 µM; read off a plot.
For chain 1 D10A, the response was about 110 % tracer bound. For chain 1 E8A the value was about 74 % tracer bound; for chain 1 V9A, about 56 % tracer bound; for chain 1 I6A, about 12 % tracer bound. Regarding chain 1 E7A, the response is about 36 % tracer bound.

Values taken from PMC11259706 (The Journal of Biological Chemistry, 2024).
